Bridge positions count the residues as written; N and C are the ends. Square brackets hold non-standard residues; d marks the D form. Ends that are not written are not given here. Oic = O=C(O)[C@@H]1C[C@@H]2CCCC[C@@H]2N1; NMeI = CC[C@H](C)[C@H](NC)C(=O)O; tBuAla = CC(C)(C)C[C@H](N)C(=O)O; Pen = CC(C)(S)[C@H](N)C(=O)O; NMeC = CN[C@@H](CS)C(=O)O; NMeA = CN[C@@H](C)C(=O)O; Aib = CC(C)(N)C(=O)O; Sar = CNCC(=O)O
T1: recombinant human MASP1 active protease (amino acids 297-699, C-terminal His Tag) (human, UniProt P48740 297-699)
T1 sequence: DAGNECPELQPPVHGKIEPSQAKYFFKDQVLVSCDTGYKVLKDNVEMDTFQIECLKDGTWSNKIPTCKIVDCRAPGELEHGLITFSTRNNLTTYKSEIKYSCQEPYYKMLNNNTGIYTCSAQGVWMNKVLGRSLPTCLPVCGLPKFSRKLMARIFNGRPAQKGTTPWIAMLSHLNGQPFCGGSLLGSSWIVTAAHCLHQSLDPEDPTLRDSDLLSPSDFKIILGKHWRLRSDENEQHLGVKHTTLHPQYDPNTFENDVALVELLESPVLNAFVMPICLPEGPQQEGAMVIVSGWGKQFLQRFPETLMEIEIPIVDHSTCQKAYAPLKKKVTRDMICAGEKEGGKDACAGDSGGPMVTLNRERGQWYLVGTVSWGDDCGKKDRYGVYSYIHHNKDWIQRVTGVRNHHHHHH


Experiments:
[1] = target: T1, recombinant human MASP1 active protease …; assay: cell-based or functional assay
[2] = target: recombinant human MASP2 active protease (amino acids 297-686, C-terminal His Tag) (human, UniProt O00187 297-686); assay: cell-based or functional assay
Sequence of recombinant human MASP2 active protease (amino acids 297-686, C-terminal His Tag) (O00187 other isoform, or with tags, fused parts or gaps limits assumed): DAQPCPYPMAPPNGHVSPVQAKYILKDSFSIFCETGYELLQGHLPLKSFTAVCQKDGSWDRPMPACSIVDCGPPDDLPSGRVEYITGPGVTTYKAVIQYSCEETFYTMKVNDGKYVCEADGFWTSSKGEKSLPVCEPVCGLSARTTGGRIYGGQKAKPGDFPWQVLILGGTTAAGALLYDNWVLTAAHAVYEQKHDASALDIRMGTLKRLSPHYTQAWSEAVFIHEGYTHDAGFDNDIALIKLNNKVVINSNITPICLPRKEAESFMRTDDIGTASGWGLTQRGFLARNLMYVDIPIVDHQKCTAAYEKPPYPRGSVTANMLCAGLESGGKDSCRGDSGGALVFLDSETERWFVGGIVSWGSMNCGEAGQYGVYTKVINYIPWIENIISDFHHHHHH

human MASP1 IC50 [1] | human MASP2 IC50 [2] | Binder
2.9 nM | 200 nM | [NMeA]ICSRSLP[Oic]I[Pen]IP-OH (disulfide 3-11; N-terminus assumed; SMILES CC[C@H](C)[C@H](NC(=O)[C@H](C)NC)C(=O)N[C@H]1CSSC(C)(C)[C@@H](C(=O)N[C@H](C(=O)N2CCC[C@H]2C(=O)O)[C@@H](C)CC)NC(=O)[C@H]([C@@H](C)CC)NC(=O)[C@@H]2C[C@@H]3CCCC[C@@H]3N2C(=O)[C@@H]2CCCN2C(=O)[C@H](CC(C)C)NC(=O)[C@H](CO)NC(=O)[C@H](CCCNC(=N)N)NC(=O)[C@H](CO)NC1=O) [((N-Me)A)-IC+SRSLP-(Oic)-I-(Pen)+IP-OH]
3 nM | 360 nM | AICSRSLP[Oic]I[Pen]I-OH (disulfide 3-11; N-terminus assumed; SMILES CC[C@H](C)[C@H](NC(=O)[C@H]1NC(=O)[C@H]([C@@H](C)CC)NC(=O)[C@@H]2C[C@@H]3CCCC[C@@H]3N2C(=O)[C@@H]2CCCN2C(=O)[C@H](CC(C)C)NC(=O)[C@H](CO)NC(=O)[C@H](CCCNC(=N)N)NC(=O)[C@H](CO)NC(=O)[C@@H](NC(=O)[C@@H](NC(=O)[C@H](C)N)[C@@H](C)CC)CSSC1(C)C)C(=O)O) [AIC+SRSLP-(Oic)-I-(Pen)+I-OH]
2.8 nM | 145 nM | [NMeA]ICSRSLP[Oic]I[Pen]IPD-NH2 (disulfide 3-11; N-terminus assumed; SMILES CC[C@H](C)[C@H](NC(=O)[C@H](C)NC)C(=O)N[C@H]1CSSC(C)(C)[C@@H](C(=O)N[C@H](C(=O)N2CCC[C@H]2C(=O)N[C@@H](CC(=O)O)C(N)=O)[C@@H](C)CC)NC(=O)[C@H]([C@@H](C)CC)NC(=O)[C@@H]2C[C@@H]3CCCC[C@@H]3N2C(=O)[C@@H]2CCCN2C(=O)[C@H](CC(C)C)NC(=O)[C@H](CO)NC(=O)[C@H](CCCNC(=N)N)NC(=O)[C@H](CO)NC1=O) [((N-Me)A)-IC+SRSLP-(Oic)-I-(Pen)+IPD-NH2]
3 nM | 330 nM | AICSRS[tBuAla]PP[(2S)‑2‑(Amino)‑2‑((1S,3R)-3-hydroxycyclohexyl)acetic acid][NMeC]IPD-NH2 (disulfide 3-11) [AIC+SRS-((tBu)A)-PP-((2S)-2-(Amino)-2-[(1S,3R)-3-hydroxycyclohexyl]acetic acid)-((N-Me)C)+IPD-NH2]
1.14 nM | 50 nM | PICSRS[tBuAla]PPI[Pen]IPD-NH2 (disulfide 3-11; N-terminus assumed; SMILES CC[C@H](C)[C@H](NC(=O)[C@@H]1CCCN1)C(=O)N[C@H]1CSSC(C)(C)[C@@H](C(=O)N[C@H](C(=O)N2CCC[C@H]2C(=O)N[C@@H](CC(=O)O)C(N)=O)[C@@H](C)CC)NC(=O)[C@H]([C@@H](C)CC)NC(=O)[C@@H]2CCCN2C(=O)[C@@H]2CCCN2C(=O)[C@H](CC(C)(C)C)NC(=O)[C@H](CO)NC(=O)[C@H](CCCNC(=N)N)NC(=O)[C@H](CO)NC1=O) [PIC+SRS-((tBu)A)-PPI-(Pen)+IPD-NH2]
3 nM | 140 nM | AICSRSLP[Oic]I[Pen]IPQ-OH (disulfide 3-11; N-terminus assumed; SMILES CC[C@H](C)[C@H](NC(=O)[C@H](C)N)C(=O)N[C@H]1CSSC(C)(C)[C@@H](C(=O)N[C@H](C(=O)N2CCC[C@H]2C(=O)N[C@@H](CCC(N)=O)C(=O)O)[C@@H](C)CC)NC(=O)[C@H]([C@@H](C)CC)NC(=O)[C@@H]2C[C@@H]3CCCC[C@@H]3N2C(=O)[C@@H]2CCCN2C(=O)[C@H](CC(C)C)NC(=O)[C@H](CO)NC(=O)[C@H](CCCNC(=N)N)NC(=O)[C@H](CO)NC1=O) [AIC+SRSLP-(Oic)-I-(Pen)+IPQ-OH]
3.1 nM | 83 nM | AICSRS[tBuAla]PPICID-OH (disulfide 3-11; N-terminus assumed; SMILES CC[C@H](C)[C@H](NC(=O)[C@H](C)N)C(=O)N[C@H]1CSSC[C@@H](C(=O)N[C@H](C(=O)N[C@@H](CC(=O)O)C(=O)O)[C@@H](C)CC)NC(=O)[C@H]([C@@H](C)CC)NC(=O)[C@@H]2CCCN2C(=O)[C@@H]2CCCN2C(=O)[C@H](CC(C)(C)C)NC(=O)[C@H](CO)NC(=O)[C@H](CCCNC(=N)N)NC(=O)[C@H](CO)NC1=O) [AIC+SRS-((t-Bu)A)-PPIC+ID-OH]
2.9 nM | 69.6 nM | [Sar]ICSRSLP[Oic]I[Pen]IP-NH2 (disulfide 3-11; also: TFA salt) [((N-Me)G)-IC+SRSLP-(Oic)-I-(Pen)+IP-NH2]
3.1 nM | 160 nM | AICSRSLP[Oic]I[Pen]IPE-NH2 (disulfide 3-11; N-terminus assumed; SMILES CC[C@H](C)[C@H](NC(=O)[C@H](C)N)C(=O)N[C@H]1CSSC(C)(C)[C@@H](C(=O)N[C@H](C(=O)N2CCC[C@H]2C(=O)N[C@@H](CCC(=O)O)C(N)=O)[C@@H](C)CC)NC(=O)[C@H]([C@@H](C)CC)NC(=O)[C@@H]2C[C@@H]3CCCC[C@@H]3N2C(=O)[C@@H]2CCCN2C(=O)[C@H](CC(C)C)NC(=O)[C@H](CO)NC(=O)[C@H](CCCNC(=N)N)NC(=O)[C@H](CO)NC1=O) [AIC+SRSLP-(Oic)-I-(Pen)+IPE-NH2, listing 1 of 2 here]
2.9 nM | 89 nM | [Sar]ICSRSLP[Oic]I[Pen]IP[PEG4‑CH2CO2H (15 atoms)]-NH2 (disulfide 3-11) [((N-Me)G)-IC+SRSLP-(Oic)-I-(Pen)+IP-(PEG4-CH2CO2H (15 atoms))-NH2]
2.8 nM | 150 nM | AICSRSLP[Oic]I[Pen]IPE-NH2 (disulfide 3-11; N-terminus assumed; SMILES CC[C@H](C)[C@H](NC(=O)[C@H](C)N)C(=O)N[C@H]1CSSC(C)(C)[C@@H](C(=O)N[C@H](C(=O)N2CCC[C@H]2C(=O)N[C@@H](CCC(=O)O)C(N)=O)[C@@H](C)CC)NC(=O)[C@H]([C@@H](C)CC)NC(=O)[C@@H]2C[C@@H]3CCCC[C@@H]3N2C(=O)[C@@H]2CCCN2C(=O)[C@H](CC(C)C)NC(=O)[C@H](CO)NC(=O)[C@H](CCCNC(=N)N)NC(=O)[C@H](CO)NC1=O) [AIC+SRSLP-(Oic)-I-(Pen)+IPE-NH2, listing 2 of 2 here]
2.8 nM | 130 nM | AICSRS[tBuAla]P[Oic]I[Pen]IPD-NH2 (disulfide 3-11; N-terminus assumed; SMILES CC[C@H](C)[C@H](NC(=O)[C@H](C)N)C(=O)N[C@H]1CSSC(C)(C)[C@@H](C(=O)N[C@H](C(=O)N2CCC[C@H]2C(=O)N[C@@H](CC(=O)O)C(N)=O)[C@@H](C)CC)NC(=O)[C@H]([C@@H](C)CC)NC(=O)[C@@H]2C[C@@H]3CCCC[C@@H]3N2C(=O)[C@@H]2CCCN2C(=O)[C@H](CC(C)(C)C)NC(=O)[C@H](CO)NC(=O)[C@H](CCCNC(=N)N)NC(=O)[C@H](CO)NC1=O) [AIC+SRS-((tBu)A)-P-(Oic)-I-(Pen)+IPD-NH2]
2.9 nM | 130 nM | AICSRSLP[Oic]I[Pen]IPE-OH (disulfide 3-11; N-terminus assumed; SMILES CC[C@H](C)[C@H](NC(=O)[C@H](C)N)C(=O)N[C@H]1CSSC(C)(C)[C@@H](C(=O)N[C@H](C(=O)N2CCC[C@H]2C(=O)N[C@@H](CCC(=O)O)C(=O)O)[C@@H](C)CC)NC(=O)[C@H]([C@@H](C)CC)NC(=O)[C@@H]2C[C@@H]3CCCC[C@@H]3N2C(=O)[C@@H]2CCCN2C(=O)[C@H](CC(C)C)NC(=O)[C@H](CO)NC(=O)[C@H](CCCNC(=N)N)NC(=O)[C@H](CO)NC1=O) [AIC+SRSLP-(Oic)-I-(Pen)+IPE-OH]
1.19 nM | 36 nM | [Aib]ICSRS[tBuAla]PPI[Pen]IPD-NH2 (disulfide 3-11; N-terminus assumed; SMILES CC[C@H](C)[C@@H]1NC(=O)[C@@H]2CCCN2C(=O)[C@@H]2CCCN2C(=O)[C@H](CC(C)(C)C)NC(=O)[C@H](CO)NC(=O)[C@H](CCCNC(=N)N)NC(=O)[C@H](CO)NC(=O)[C@@H](NC(=O)[C@@H](NC(=O)C(C)(C)N)[C@@H](C)CC)CSSC(C)(C)[C@@H](C(=O)N[C@H](C(=O)N2CCC[C@H]2C(=O)N[C@@H](CC(=O)O)C(N)=O)[C@@H](C)CC)NC1=O) [(Aib)-IC+SRS-((tBu)A)-PPI-(Pen)+IPD-NH2]
3.1 nM | 590 nM | A[NMeI]CSRS[tBuAla]P[Oic]I[NMeC]IPD-NH2 (disulfide 3-11; N-terminus assumed; SMILES CC[C@H](C)[C@@H]1NC(=O)[C@@H]2C[C@@H]3CCCC[C@@H]3N2C(=O)[C@@H]2CCCN2C(=O)[C@H](CC(C)(C)C)NC(=O)[C@H](CO)NC(=O)[C@H](CCCNC(=N)N)NC(=O)[C@H](CO)NC(=O)[C@@H](NC(=O)[C@H]([C@@H](C)CC)N(C)C(=O)[C@H](C)N)CSSC[C@@H](C(=O)N[C@H](C(=O)N2CCC[C@H]2C(=O)N[C@@H](CC(=O)O)C(N)=O)[C@@H](C)CC)N(C)C1=O) [A-((N-Me)I)-C+SRS-((tBu)A)-P-(Oic)-I-((N-Me)C)+IPD-NH2]
2.9 nM | 160 nM | AICSRSLP[Oic]I[Pen]IP-OH (disulfide 3-11; N-terminus assumed; SMILES CC[C@H](C)[C@H](NC(=O)[C@H](C)N)C(=O)N[C@H]1CSSC(C)(C)[C@@H](C(=O)N[C@H](C(=O)N2CCC[C@H]2C(=O)O)[C@@H](C)CC)NC(=O)[C@H]([C@@H](C)CC)NC(=O)[C@@H]2C[C@@H]3CCCC[C@@H]3N2C(=O)[C@@H]2CCCN2C(=O)[C@H](CC(C)C)NC(=O)[C@H](CO)NC(=O)[C@H](CCCNC(=N)N)NC(=O)[C@H](CO)NC1=O) [AIC+SRSLP-(Oic)-I-(Pen)+IP-OH]

Reference: patent publication US20210246166A1 (Bayer, published 2021)
